Tests used:
6xhis-tagged SNAP25A = target: T1, 6xhis-tagged SNAP25A (UniProt P60881-2 1-206); assay: overlay assay
T1 construct: also called 6xhisSNAP25; 6xhis-SNAP25; not shown: 6xhis tag
Procedure: The binding of GST, GST-Cyt-TIVAMP, GST-ter-TIVAMP, or GST-CC-TIVAMP was measured by overlay over immobilized 6xhis-SNAP25 (indicated by the arrow). GST-CC-TIVAMP bound efficiently to immobilized 6xhis-SNAP25. Little binding of GST-Cyt-TIVAMP and none of GST and GST-Nter-TIVAMP were observed.
Overlay assay: The corresponding GST fusion proteins and GST alone were produced and purified as previously described, 6xhis-tagged SNAP25A (6xhisSNAP25, bacterial strain is available from G. Schiavo, ICRF, London, UK) was purified. 6xhisSNAP25 was run on SDS-PAGE and western blotted onto Immobilon-P membrane (Millipore, Bedford, Mass.). The amount of 6xhisSNAP25 corresponds to 1.25 μg/mm of membrane, 4 mm strips of the membrane were cut and incubated in 150 mM NaCl, 5% non fat dry milk. 50 mM phosphate pH7.5 buffer for 1 hour at room temperature. The strips were then incubated with 10 nM the GST-fusion proteins overnight at 4° C. in buffer B (3% BSA, 0.1%, Tween20 20 mM Tris pH: 7.5) containing 1 mM DTT. The strips were rinsed three times in buffer B at room temperature, incubated with anti-GST antibodies in butfer B for 1 hour, rinsed in buffer B three times and incubated with alkaline phosphatase-coupled sheep anti-mouse antibodies. The detection as carried out simultaneously for all the strips, for the same time, using a kit from Promega (Madison, Wis.).

[1] = target: endogenous SNAP25 (rat brain extract; PC12 cells) (rat, UniProt P60881 1-206); assay: co-immunoprecipitation with anti-SNAP25 from Triton X-100 extract of rat brain
Procedure: FIG. 4A illustrates that TI-VAMP forms a complex with SNAP25 in Triton X100 extract of rat brain. Immunoprecipitation with anti-SNAP25 antibodies was performed from Triton X100 soluble extract of rat brain as described in the Materials and Methods section of example 1 and immunoprecipitated proteins were detected by western blot analysis with the indicated antibodies (synaptobrevin 2, Sb2: cellubrevin, Cb: U, unbound, B: bound to anti-SNAP25 immunobeads). The bound fraction corresponded to a 65-fold enrichment compared to unbound. The SNAP25 TI-VAMP complex seemed more abundant than the SNAP25 synaptobrevin 2 one but this may only reflect a lower expression level of TI-VAMP compared to synaptobrevin 2 in the adult brain.
Immunoprecipitation: Immunoprecipitation from rat brain was performed using a Triton X-100 soluble membrane fraction prepared as follows: two adult rat brains were homogenized, with a glass teflon homogenizer (9 strokes at 900 rpm) in 25 ml of 0.32M sucrose containing a protease inhibitor cocktail. All the steps were carried out at 4° C. After 10 min centrifugation at 800 g the supernatant was centrifuged at 184000 g for 1 hour, obtaining a cytosolic and a membrane fraction in the supernatant and the pellet, respectively. […]

T1 sequence (P60881 other isoform, or with tags, fused parts or gaps limits assumed): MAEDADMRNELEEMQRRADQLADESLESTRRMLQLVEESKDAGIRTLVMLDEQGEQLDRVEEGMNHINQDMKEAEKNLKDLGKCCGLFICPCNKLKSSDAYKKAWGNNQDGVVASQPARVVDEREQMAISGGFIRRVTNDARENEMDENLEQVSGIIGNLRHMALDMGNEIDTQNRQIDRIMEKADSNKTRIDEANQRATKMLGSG
Sequence of endogenous SNAP25 (rat brain extract; PC12 cells) (P60881 whole entry): as the sequence (P60881 other isoform, or with tags, fused parts or gaps limits assumed) above, with D58E, V60I, N65D, H66Q, Q69K, K79T, C84F, F88C, I89V counted along it

Row | Binder | binding result (6xhis-tagged SNAP25A) | binding result [1]
1 | GST-Cyt-TIVAMP (other, also called full cytoplasmic domain of TI-VAMP fused to GST; not shown: glutathione S-transferase (GST) tag encoded by the pGEX4T vector (Pharmacia)) MAILFAVVARGTTILAKHAWCGGNFLEVTEQILAKIPSENNKLTYSHGNYLFHYICQDRIVYLCITDDDFERSRAFNFLNEIKKRFQTTYGSRAQTALPYAMNSEFSSVLAAQLKHHSENKGLDKVMETQAQVDELKGIMVRNIDLVAQRGERLELLIDKTENLVDSSVTFKTTSRNLARAMCMKNLK | binds | –
2 | endogenous cellubrevin (rat brain) (other, UniProt P63025 1-103, looked up, also called Cb) MSTGVPSGSSAATGSNRRLQQTQNQVDEVVDIMRVNVDKVLERDQKLSELDDRADALQAGASQFETSAAKLKRKYWWKNCKMWAIGISVLVIIVIIIIVWCVS | – | no binding

Source: US20030153520A1 (published 2003)
